Assay results taken from article PMC4706430, “In Vitro Mode of Action and Anti-thrombotic Activity of Boophilin, a Multifunctional Kunitz Protease Inhibitor from the Midgut of a Tick Vector of Babesiosis, Rhipicephalus microplus” (PLoS Neglected Tropical Diseases, 2016).

What was measured:
FXIa [1] = target: T1, FXIa (human, UniProt P03951 19-387; P03951 388-625); experiment: enzyme inhibition kinetics (chromogenic substrate hydrolysis); apparent Ki from Vs/Vo against Boophilin concentration (0-640 nM); FXIa (10 nM) pre-incubated 1 hour with Boophilin, then S2366 (250 μM); TBS-BSA pH 7.4; settings: both partners purified
T1 construct: coagulation factor XIa heavy chain; coagulation factor XIa light (catalytic) chain; for the Enzyme Research Laboratories FXIa no species is printed; also called Factor XIa; source: bought: Enzyme Research Laboratories (reagents list); bought: Molecular Innovations (protease screen); copies: 2 + 2

α-thrombin [2] = target: T2, α-thrombin (human, UniProt P00734 364-622); experiment: SPR; Biacore T100; Boophilin immobilised on CM5 by amine coupling (301.4 RU); thrombin (15.625-500 nM) injected 90 s, dissociation 180 s, 30 μL/minute, 25°C, HBS-P pH 7.4; global 1:1 Langmuir fit; α-thrombin, γ-thrombin and PPACK-thrombin also tested at 1 μM as analytes; settings: both partners purified
FXIa [3] = target: T1, FXIa; experiment: SPR; Biacore T100; FXIa immobilised on CM5 by amine coupling (1280.4 RU); Boophilin (31.25-500 nM) injected 120 s, dissociation 600 s, 30 μL/minute, 25°C, HBS-P pH 7.4; global 1:1 Langmuir fit; settings: both partners purified
kallikrein = kallikrein (human, UniProt P03952 20-638); experiment: cell-based or functional assay
α-thrombin [4] = target: T2, α-thrombin; experiment: cell-based or functional assay
FXIa [5] = target: T1, FXIa; experiment: enzyme inhibition kinetics (chromogenic substrate hydrolysis); Lineweaver-Burk plots and re-plot of the slope against Boophilin concentration; Boophilin (0-1280 nM) with S2238 or S2366 (125-750 μM), then thrombin (0.2 nM) or FXIa (0.5 nM); TBS-BSA pH 7.4; settings: both partners purified
α-thrombin [6] = target: T2, α-thrombin; experiment: as above; settings: both partners purified

T1 sequence (P03951 19-387, chain 1 of 2): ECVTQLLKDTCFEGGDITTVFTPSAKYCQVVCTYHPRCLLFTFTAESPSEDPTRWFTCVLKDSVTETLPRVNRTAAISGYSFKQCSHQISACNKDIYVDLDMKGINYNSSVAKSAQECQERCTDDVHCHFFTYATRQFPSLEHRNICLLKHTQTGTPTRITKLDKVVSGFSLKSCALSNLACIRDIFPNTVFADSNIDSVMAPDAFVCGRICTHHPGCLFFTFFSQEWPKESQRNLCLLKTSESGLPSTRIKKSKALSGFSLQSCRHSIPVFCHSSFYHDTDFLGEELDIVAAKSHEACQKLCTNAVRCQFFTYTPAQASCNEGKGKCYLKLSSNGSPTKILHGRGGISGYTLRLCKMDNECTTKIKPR
T1 sequence (P03951 388-625, chain 2 of 2): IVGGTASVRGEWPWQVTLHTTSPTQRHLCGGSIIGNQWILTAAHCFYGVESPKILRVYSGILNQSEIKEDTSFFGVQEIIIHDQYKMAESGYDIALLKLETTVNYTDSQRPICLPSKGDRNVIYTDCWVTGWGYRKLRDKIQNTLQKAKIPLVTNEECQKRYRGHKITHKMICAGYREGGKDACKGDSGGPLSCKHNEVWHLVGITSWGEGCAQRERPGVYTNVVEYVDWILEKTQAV
Chain of kallikrein (P03952 20-638): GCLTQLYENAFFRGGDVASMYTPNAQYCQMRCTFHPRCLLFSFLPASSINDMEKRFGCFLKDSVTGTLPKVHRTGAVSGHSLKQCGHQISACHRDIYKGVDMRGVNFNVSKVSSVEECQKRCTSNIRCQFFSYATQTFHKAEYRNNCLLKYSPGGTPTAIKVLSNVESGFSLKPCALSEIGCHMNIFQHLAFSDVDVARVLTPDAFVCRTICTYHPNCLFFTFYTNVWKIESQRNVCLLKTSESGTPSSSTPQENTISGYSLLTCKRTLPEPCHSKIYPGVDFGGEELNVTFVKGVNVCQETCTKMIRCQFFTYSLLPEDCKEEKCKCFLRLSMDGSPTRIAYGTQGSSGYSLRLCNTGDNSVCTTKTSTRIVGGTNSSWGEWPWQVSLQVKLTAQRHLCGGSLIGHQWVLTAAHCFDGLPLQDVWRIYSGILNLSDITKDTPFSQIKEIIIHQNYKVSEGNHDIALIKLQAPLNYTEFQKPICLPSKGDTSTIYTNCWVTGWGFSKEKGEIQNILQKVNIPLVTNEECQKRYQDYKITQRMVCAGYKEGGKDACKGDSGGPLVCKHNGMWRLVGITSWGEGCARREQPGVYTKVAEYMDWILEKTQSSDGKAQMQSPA

B1: Boophilin (natural protein)
chain: QRNGFCRLPADEGICKALIPRFYFNTETGKCTMFSYGGCGGNENNFETIEDCQKACGAPERVSDFEGADFKTGCEPAADSGSCAGQLERWFYNVRSGECETFVYGGCGGNDNNYESEEECELVCKNM
modifications: N-terminus blocked (Edman degradation)
Ki (FXIa [1]): ~82 nM | Kd (α-thrombin [2]): 116 nM | koff (α-thrombin [2]): 0.36 s⁻¹ | kon (α-thrombin [2]): 3e+06 M⁻¹ s⁻¹ | Kd (FXIa [3]): ~125 nM | IC50 of the amidolytic activity of kallikrein (2 nM) on S2302, Boophilin 0-3200 nM, Vs/Vo (Fig 3G) (kallikrein): 919000 nM | IC50 of residual amidolytic activity (S-2238) of clot-bound thrombin (Fig 2H) (α-thrombin [4]): ~1000 nM | IC50 of thrombin-mediated fibrin formation (thrombin 200 nM, fibrinogen 2 mg/mL; absorbance at 600 nm) (Fig 2G) (α-thrombin [4]): ~1000 nM | Ki (FXIa [5]): 115 nM | Ki (α-thrombin [6]): 101 nM
